Target: Taxol-stabilized Cy5-microtubules
Test: single-molecule TIRF microscopy

| fold increase in the frequency of active landing events against FL WT Kif21a [fold] | Substance |
| --- | --- |
| 10 | mouse GFP-fused FL MT1 (M356T) Kif21a (natural protein) |
| 10 | mouse GFP-fused FL MT3 (R943W) Kif21a (natural protein) |
